Results taken from the supplement of paper PMC10567573.

B1: ZNF193 (parent)
chain: QCIECGKSFNRHCNLIRHQKIHTV

Variants of: B1
Assay: protein stability index of a GFP-peptide fusion (GPS, HEK-293T) (PSI 1-6); higher = more stable
Settings: c terminus: a fixed tail appended
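Also: lentivirally expressed fusions sorted by FACS into six bins by GFP to DsRed ratio, PSI derived from sequencing read proportions per bin multiplied by bin number.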

Point of comparison: QCIECGKSFNRHCNLIRHQKIHVV [T23V], protein stability index 3.26. Against it:
- QCIECGKSFNRHCNLIIHQKIHTV [R17I] — lower, 2.31
- QCIECGKSPNRHCNLIRHQKIHTV [F9P] — lower, 3.25
- QCIECGKSYNRHCNLIRHQKIHTV [F9Y] — lower, 3.01
- QCIECGKSINRHCNLIRHQKIHTV [F9I] — lower, 2.13
- QCIECGKSGNRHCNLIRHQKIHTV [F9G] — lower, 2.86
- QCIECGKSLNRHCNLIRHQKIHTV [F9L] — lower, 1.9
- QCIECGKSCNRHCNLIRHQKIHTV [F9C] — higher, 3.47
- QCIECGKSQNRHCNLIRHQKIHTV [F9Q] — lower, 2.88
- QCIECGKSMNRHCNLIRHQKIHTV [F9M] — lower, 2.51
- QCIECGKSSNRHCNLIRHQKIHTV [F9S] — lower, 2.83
- QCIECGKSWNRHCNLIRHQKIHTV [F9W] — lower, 2.77
- QCIECGKSDNRHCNLIRHQKIHTV [F9D] — lower, 3.09
- QCIECGKSNNRHCNLIRHQKIHTV [F9N] — lower, 2.56
- QCIECGKSRNRHCNLIRHQKIHTV [F9R] — lower, 2.77
- QCIECGKSVNRHCNLIRHQKIHTV [F9V] — lower, 1.92
- QCIECGKSFNRHCNRIRHQKIHTV [L15R] — lower, 3.01
- QCIECGKSFNRHCNTIRHQKIHTV [L15T] — lower, 2.29
- QCIECGKSFNRHCNKIRHQKIHTV [L15K] — lower, 2.94
- QCIECGKSFNRHCNDIRHQKIHTV [L15D] — lower, 3.18
- QCIECGKSFNRHCNGIRHQKIHTV [L15G] — lower, 3.04
- QCIECGKSFNRHCNCIRHQKIHTV [L15C] — higher, 3.6
- QCIECGKSFNRHCNVIRHQKIHTV [L15V] — lower, 2.34
- QCIECGKSFNRHCNPIRHQKIHTV [L15P] — lower, 2.39
- QCIECGKSFNRHCNAIRHQKIHTV [L15A] — lower, 2.82
- QCIEVGKSFNRHCNLIRHQKIHTV [C5V] — lower, 2.13
- QCIEQGKSFNRHCNLIRHQKIHTV [C5Q] — lower, 2.6
- QCIEYGKSFNRHCNLIRHQKIHTV [C5Y] — lower, 2.26
- QCIEKGKSFNRHCNLIRHQKIHTV [C5K] — lower, 2.09
- QCIERGKSFNRHCNLIRHQKIHTV [C5R] — lower, 2.22
- QCIEDGKSFNRHCNLIRHQKIHTV [C5D] — lower, 2.52
- QCQECGKSFNRHCNLIRHQKIHTV [I3Q] — higher, 4.09
- QCFECGKSFNRHCNLIRHQKIHTV [I3F] — higher, 3.32
- QCWECGKSFNRHCNLIRHQKIHTV [I3W] — lower, 3.18
- QCYECGKSFNRHCNLIRHQKIHTV [I3Y] — higher, 3.38
- QCNECGKSFNRHCNLIRHQKIHTV [I3N] — higher, 3.65
- QCTECGKSFNRHCNLIRHQKIHTV [I3T] — higher, 4.2
- QCAECGKSFNRHCNLIRHQKIHTV [I3A] — higher, 4.7
- QCVECGKSFNRHCNLIRHQKIHTV [I3V] — higher, 3.73
- QCIWCGKSFNRHCNLIRHQKIHTV [E4W] — higher, 3.85
- QCIVCGKSFNRHCNLIRHQKIHTV [E4V] — higher, 3.48
- QCISCGKSFNRHCNLIRHQKIHTV [E4S] — lower, 2.75
- QCIGCGKSFNRHCNLIRHQKIHTV [E4G] — lower, 2.04
- QCIRCGKSFNRHCNLIRHQKIHTV [E4R] — higher, 3.71
- QCINCGKSFNRHCNLIRHQKIHTV [E4N] — lower, 2.76
- QCIKCGKSFNRHCNLIRHQKIHTV [E4K] — lower, 3.1
- QCIHCGKSFNRHCNLIRHQKIHTV [E4H] — higher, 4.27
- QCITCGKSFNRHCNLIRHQKIHTV [E4T] — higher, 3.42
- QCIMCGKSFNRHCNLIRHQKIHTV [E4M] — lower, 3.1
- QCIECGKSFNRHCNLIRHQKIPTV [H22P] — lower, 2.62
- QCIECGKSFNRHCNLIRHQKIDTV [H22D] — lower, 2.08
- QCIECGKSFNRHCNLIRHQKIRTV [H22R] — lower, 2.89
- QCIECGKSFNRHCNLIRHQKICTV [H22C] — higher, 4.83
- QCIECGKSFNRHCNLIRHQKIETV [H22E] — lower, 2.63
- QCIECGKSFNRHCNLIRHQKIHDV [T23D] — lower, 3.13
- QCIECGKSFNRHCNLIRHQKIHPV [T23P] — lower, 3.23
- QCIECGKSFNRHCNLIRHQKIHFV [T23F] — lower, 2.85
- QCIECGKSFNRHCNLIRHQKIHLV [T23L] — lower, 2.7
- QCIECGKSFNRHCNLIRHQKIHYV [T23Y] — higher, 3.31
- QCIECGKSFNRHCNLIRHQKIHEV [T23E] — higher, 4.38
- QCIECGKSFNRHCNLIRHQKIHTT [V24T] — higher, 3.84
- QCIECGKSFNRHCNLIRHQKIHTI [V24I] — lower, 2.8
- QCIECGKSFNRHCNLIRHQKIHTP [V24P] — higher, 4.21
- QCIECGKSFNRHCNLIRHQKIHTR [V24R] — higher, 3.83
- QCIECGKSFNRHCNLIRHQKIHTE [V24E] — higher, 4.36
- QCIECGKSFNRHCNLIRHQKIHTW [V24W] — lower, 2.75
- QCIECGKSFNRHCNLIRHQKIHTS [V24S] — higher, 4.21
- QCIECGTSFNRHCNLIRHQKIHTV [K7T] — lower, 2.93
- QCIECGRSFNRHCNLIRHQKIHTV [K7R] — lower, 3.05
- QCIECGYSFNRHCNLIRHQKIHTV [K7Y] — lower, 2.29
- QCIECGDSFNRHCNLIRHQKIHTV [K7D] — lower, 2.57
- QCIECGFSFNRHCNLIRHQKIHTV [K7F] — lower, 2.37
- QCIECGPSFNRHCNLIRHQKIHTV [K7P] — lower, 2.59
- QCIECGNSFNRHCNLIRHQKIHTV [K7N] — lower, 2.34
- QCIECGISFNRHCNLIRHQKIHTV [K7I] — lower, 3.08
- QCIECGGSFNRHCNLIRHQKIHTV [K7G] — lower, 2.13
- QCIECGKSFNRHCNLQRHQKIHTV [I16Q] — higher, 3.64
- QCIECGKSFNRHCNLFRHQKIHTV [I16F] — lower, 2.43
- QCIECGKSFNRHCNLARHQKIHTV [I16A] — lower, 2.74
- QCIECGKSFNRHCNLGRHQKIHTV [I16G] — lower, 3.02
- QCIECGKSFNRHCNLDRHQKIHTV [I16D] — lower, 2.96
- QCIECGKSFNRHCNLYRHQKIHTV [I16Y] — lower, 2.94
- QCIECGKSFNRHCNLRRHQKIHTV [I16R] — higher, 3.51
- QCIECGKSFNRHCNLPRHQKIHTV [I16P] — lower, 2.56
- QCIECGKSFNRHCNLLRHQKIHTV [I16L] — higher, 3.29
- QCIECGKSFNRHCNLIRYQKIHTV [H18Y] — lower, 1.41
- QCIECGKSFNRHCNLIRMQKIHTV [H18M] — lower, 1.65
- QCIECGKSFNRHCNLIRFQKIHTV [H18F] — lower, 2.4
- QCIECGKSFNRHCNLIRQQKIHTV [H18Q] — lower, 2.24
- QCIECGKSFNRHCNLIRDQKIHTV [H18D] — lower, 1.97
- QCIECGKSFNRHCNLIRAQKIHTV [H18A] — lower, 2.45
- QCIECGKSFNRHCNLIRLQKIHTV [H18L] — lower, 1.71
- QCIECGKSFNRHCNLIRRQKIHTV [H18R] — lower, 1.87
- QCIECGKSFNRHCNLIRKQKIHTV [H18K] — lower, 2.38
